This passage reports Kd results from doi:10.1101/2022.05.30.493996.

The assay deals with Gp57 (purified) (phage SECΦ27). In words: ITC.

As usually defined, the Kd is the constant that tells how readily two partners part at equilibrium. Low readings indicate higher affinity, high ones lower affinity. Consider “CapRel^SJ46 (purified, full-length) (enzyme)”, for which the Kd was found to be 190 nM.
